Experiments:
[1] = target: RSV F protein (DS-Cav1); assay: Biolayer interferometry, MMP-9 binding to RSV F protein (DS-Cav1); design: species or system Respiratory syncytial virus; conditions: BLI, DS-Cav1 immobilized; read-out: dissociation constant (KD), MMP-9 to RSV F
Procedure: Figure 4. MMP-9 interacts with RSV F protein. (A) MMP-9–F protein interaction analysis. HEK293T cells co-transfected with MMP-9 and RSV F plasmids (48 h) were subjected to co-immunoprecipitation (Co-IP) using anti-F, anti-MMP-9, or IgG control antibodies, followed by immunoblotting with indicated probes. Blots represent three independent experiments. (B) Binding affinity quantification. Biolayer interferometry (BLI) assays using ForteBio Octet measured DS-Cav1 (RSV F prefusion conformation) and MMP-9 interactions. The results represent three biological replicates. (C) Subcellular co-localization. Confocal microscopy of HEp-2 cells transfected with MMP-9 (24 h) ± RSV A2 infection (MOI = 1, 72 hpi). Nuclei (DAPI), MMP-9, and RSV F signals are shown. Scale bar: 20 µm. Images represent three biological replicates. (D) No effect on F protein proteolytic processing. Western blot of RSV F cleavage status in HEK293T cells co-expressing MMP-9 (100–500 ng) and RSV F (500 ng) for 48 h. β-Actin served as loading control. Blots represent three independent experiments. […] They were left out and are not reliably readable. […]
(§1) 271 TGM2) were quantified using a Sartorius Octet R4 system. […]
(§2) 275 equilibration. MMP-9 (MCE) binding was assessed across two concentration ranges: […]
(§3) 281 (Sartorius) at 20 µg/mL. TGM2 binding was evaluated across 0 –100 µM (7 […]

[2] = target: T1, TGM2 (Homo sapiens, UniProt P21980); assay: Biolayer interferometry, MMP-9 binding to TGM2; conditions: BLI, purified human proteins, TGM2 immobilized; read-out: dissociation constant (KD), MMP-9 to TGM2
T1 construct: His tag (inferred from capture on anti-penta-HIS biosensors); purchased MCE (MedChemExpress)
T1 sequence (P21980 1-687): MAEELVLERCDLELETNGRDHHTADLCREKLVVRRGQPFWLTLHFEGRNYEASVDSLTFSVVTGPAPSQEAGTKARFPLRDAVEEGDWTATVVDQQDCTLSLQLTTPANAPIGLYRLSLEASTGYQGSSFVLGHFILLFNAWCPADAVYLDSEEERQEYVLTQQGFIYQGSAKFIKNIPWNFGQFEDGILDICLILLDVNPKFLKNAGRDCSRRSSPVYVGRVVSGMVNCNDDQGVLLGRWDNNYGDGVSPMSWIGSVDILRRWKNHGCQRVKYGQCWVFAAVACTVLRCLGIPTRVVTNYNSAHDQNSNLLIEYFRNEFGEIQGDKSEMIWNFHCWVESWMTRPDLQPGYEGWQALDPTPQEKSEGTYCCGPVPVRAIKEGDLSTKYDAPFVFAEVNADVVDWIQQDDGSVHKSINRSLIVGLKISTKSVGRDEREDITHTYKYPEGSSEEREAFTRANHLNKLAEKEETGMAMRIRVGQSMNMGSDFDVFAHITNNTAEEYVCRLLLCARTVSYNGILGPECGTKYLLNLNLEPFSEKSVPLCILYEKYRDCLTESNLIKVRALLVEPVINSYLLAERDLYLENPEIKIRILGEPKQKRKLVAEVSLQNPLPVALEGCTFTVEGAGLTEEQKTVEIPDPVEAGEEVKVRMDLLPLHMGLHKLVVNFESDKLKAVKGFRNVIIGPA
Procedure: Figure 6. MMP-9 cleaves TGM2 to potentiate RSV infection. (A) MMP-9–TGM2 interaction. […] Blots represent three independent experiments. (D) Infection-enhanced cleavage. MMP-9-dependent TGM2 proteolysis in HEp-2 cells transfected with HA-TGM2 and siMMP-9, followed by RSV A2 infection (MOI = 1, 72 hpi). TGM2 fragment band intensity was quantified by ImageJ software (gray values). Blots represent three independent experiments. (E) Enzymatic validation. MMP-9 proteolytic activity was measured using fluorogenic substrate Mca-PLGL-Dpa-AR-NH2. The results represent three biological replicates. (F) In vitro cleavage assay. Recombinant TGM2 (2 µg) was incubated with APMA-activated MMP-9 (0.2 µg) for 18 h (37°C, pH 7.5). Cleavage products resolved by SDS-PAGE (10%). Arrows indicate proteolytic fragments. The results represent three biological replicates. (G) Functional rescue. Viral titers (FFA) in HEp-2 cells overexpressing MMP-9, TGM2, or cleavage-resistant mutant (TGM2-P375A) post RSV infection (MOI = 1, 72 hpi). mean ± SD, n = 3. (H) Syncytium rescue. Syncytia area quantification in MMP-9/TGM2-modulated cells (ImageJ software). mean ± SD, n = 3. […]
as §1, §2, §3

B1: MMP-9: recombinant matrix metalloproteinase 9 protein used as analyte in BLI (protein)
chain: APRQRQSTLVLFPGDLRTNLTDRQLAEEYLYRYGYTRVAEMRGESKSLGPALLLLQKQLSLPETGELDSATLKAMRTPRCGVPDLGRFQTFEGDLKWHHHNITYWIQNYSEDLPRAVIDDAFARAFALWSAVTPLTFTRVYSRDADIVIQFGVAEHGDGYPFDGKDGLLAHAFPPGPGIQGDAHFDDDELWSLGKGVVVPTRFGNADGAACHFPFIFEGRSYSACTTDGRSDGLPWCSTTANYDTDDRFGFCPSERLYTQDGNADGKPCQFPFIFQGQSYSACTTDGRSDGYRWCATTANYDRDKLFGFCPTRADSTVMGGNSAGELCVFPFTFLGKEYSTCTSEGRGDGRLWCATTSNFDSDKKWGFCPDQGYSLFLVAAHEFGHALGLDHSSVPEALMYPMYRFTEGPPLHKDDVNGIRHLYGPRPEPEPRPPTTTTPQPTAPPTVCPTGPPTVHPSERPTAGPTGPPSAGPTGPPTAGPSTATTVPLSPVDDACNVNIFDAIAEIGNQLYLFKDGKYWRFSEGRGSRPQGPFLIADKWPALPRKLDSVFEERLSKKLFFFSGRQVWVYTGASVLGPRRLDKLGLGADVAQVTGALRSGRGKMLLFSGRRLWRFDVKAQMVDPRSASEVDRMFPGVPLDTHDVFQYREKAYFCQDRFYWRVSSRSELNQVDQVGYVTYDILQCPED
- Kd [1]: 146 nM
- Kd [2]: 1980 nM

— publication PMC12888920, “MMP-9 regulates disulphide isomerase activity of TGM2 to enhance fusion glycoprotein-mediated syncytium formation of respiratory syncytial virus” (Protein & Cell, 2025)
